Results as given in patent publication US20210292385A1 (WNTRX PHARMACEUTICALS, published 2021).
Bridge positions count the residues as written; N and C are the ends. Square brackets hold non-standard residues; d marks the D form. 2Nal = N[C@@H](Cc1ccc2ccccc2c1)C(=O)O; S5 = C=CCCC[C@](C)(N)C(=O)O; βAla = NCCC(=O)O

Key:
[1] = biological target: β-catenin protein (ALPHA screening assay) (UniProt P35222); assay: ALPHA screen: biotinylated peptide on streptavidin donor beads, β-catenin on protein A acceptor beads via anti-β-catenin antibody
[2] = biological target: T1, β-catenin in cells (LEF/TCF-bla HCT-116 reporter cells; Colo320DM cells) (UniProt P35222 2-781, limits assumed); assay: cell-based or functional assay
T1 sequence (looked up): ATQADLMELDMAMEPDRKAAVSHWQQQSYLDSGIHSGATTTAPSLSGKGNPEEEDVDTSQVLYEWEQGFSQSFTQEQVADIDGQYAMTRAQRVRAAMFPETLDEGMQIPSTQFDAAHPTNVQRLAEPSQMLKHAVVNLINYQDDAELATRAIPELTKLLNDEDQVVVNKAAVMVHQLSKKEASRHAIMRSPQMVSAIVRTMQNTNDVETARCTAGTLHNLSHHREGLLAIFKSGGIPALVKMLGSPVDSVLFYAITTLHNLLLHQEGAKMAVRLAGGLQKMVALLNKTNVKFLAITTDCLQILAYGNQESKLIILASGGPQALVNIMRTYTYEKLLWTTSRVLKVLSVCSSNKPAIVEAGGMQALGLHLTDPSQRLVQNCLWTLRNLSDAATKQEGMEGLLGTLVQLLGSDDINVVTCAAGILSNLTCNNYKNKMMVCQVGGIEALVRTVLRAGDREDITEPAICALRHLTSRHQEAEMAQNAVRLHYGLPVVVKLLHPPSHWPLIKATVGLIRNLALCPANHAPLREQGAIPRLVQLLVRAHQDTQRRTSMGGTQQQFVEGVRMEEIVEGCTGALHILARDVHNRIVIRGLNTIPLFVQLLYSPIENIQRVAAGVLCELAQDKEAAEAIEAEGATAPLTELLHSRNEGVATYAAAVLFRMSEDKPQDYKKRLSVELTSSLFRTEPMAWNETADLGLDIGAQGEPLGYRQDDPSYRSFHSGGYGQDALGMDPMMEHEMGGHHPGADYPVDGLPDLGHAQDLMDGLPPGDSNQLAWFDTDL

[3] = biological target: T2, Histidine-tagged β-catenin (HTRF assay) (UniProt P35222 1-781, limits assumed); assay: HTRF assay (Cisbio): biotin-labeled peptide, His-tagged β-catenin, Eu-labeled anti-His antibody and SA-XL665
T2 construct: also called His-tag protein; not shown: histidine tag
T2 sequence (looked up): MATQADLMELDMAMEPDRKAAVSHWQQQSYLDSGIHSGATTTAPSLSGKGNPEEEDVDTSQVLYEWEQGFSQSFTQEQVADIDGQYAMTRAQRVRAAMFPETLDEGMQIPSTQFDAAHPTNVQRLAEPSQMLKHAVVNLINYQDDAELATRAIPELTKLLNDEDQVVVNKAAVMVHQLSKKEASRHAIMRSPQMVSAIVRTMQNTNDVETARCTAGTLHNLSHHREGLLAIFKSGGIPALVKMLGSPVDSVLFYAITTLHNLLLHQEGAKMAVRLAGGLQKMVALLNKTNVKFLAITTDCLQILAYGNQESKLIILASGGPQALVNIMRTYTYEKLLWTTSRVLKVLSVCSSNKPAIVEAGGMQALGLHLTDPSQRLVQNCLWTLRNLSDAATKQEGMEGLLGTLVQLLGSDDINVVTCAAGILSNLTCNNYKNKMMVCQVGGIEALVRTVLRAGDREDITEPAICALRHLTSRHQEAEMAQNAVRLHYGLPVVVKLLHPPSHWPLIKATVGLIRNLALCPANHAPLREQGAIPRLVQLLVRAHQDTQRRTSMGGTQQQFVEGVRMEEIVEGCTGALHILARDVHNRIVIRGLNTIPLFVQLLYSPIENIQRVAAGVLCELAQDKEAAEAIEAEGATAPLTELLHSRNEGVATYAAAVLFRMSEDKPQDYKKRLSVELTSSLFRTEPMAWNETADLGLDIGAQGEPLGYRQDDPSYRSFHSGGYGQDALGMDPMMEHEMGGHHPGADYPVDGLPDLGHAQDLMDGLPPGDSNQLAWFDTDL

[4] = biological target: T3, β-catenin protein (ALPHA screening assay) (UniProt P35222 1-781, limits assumed); assay: ALPHA screen: biotinylated peptide on streptavidin donor beads, β-catenin on protein A acceptor beads via anti-β-catenin antibody
T3 sequence (looked up): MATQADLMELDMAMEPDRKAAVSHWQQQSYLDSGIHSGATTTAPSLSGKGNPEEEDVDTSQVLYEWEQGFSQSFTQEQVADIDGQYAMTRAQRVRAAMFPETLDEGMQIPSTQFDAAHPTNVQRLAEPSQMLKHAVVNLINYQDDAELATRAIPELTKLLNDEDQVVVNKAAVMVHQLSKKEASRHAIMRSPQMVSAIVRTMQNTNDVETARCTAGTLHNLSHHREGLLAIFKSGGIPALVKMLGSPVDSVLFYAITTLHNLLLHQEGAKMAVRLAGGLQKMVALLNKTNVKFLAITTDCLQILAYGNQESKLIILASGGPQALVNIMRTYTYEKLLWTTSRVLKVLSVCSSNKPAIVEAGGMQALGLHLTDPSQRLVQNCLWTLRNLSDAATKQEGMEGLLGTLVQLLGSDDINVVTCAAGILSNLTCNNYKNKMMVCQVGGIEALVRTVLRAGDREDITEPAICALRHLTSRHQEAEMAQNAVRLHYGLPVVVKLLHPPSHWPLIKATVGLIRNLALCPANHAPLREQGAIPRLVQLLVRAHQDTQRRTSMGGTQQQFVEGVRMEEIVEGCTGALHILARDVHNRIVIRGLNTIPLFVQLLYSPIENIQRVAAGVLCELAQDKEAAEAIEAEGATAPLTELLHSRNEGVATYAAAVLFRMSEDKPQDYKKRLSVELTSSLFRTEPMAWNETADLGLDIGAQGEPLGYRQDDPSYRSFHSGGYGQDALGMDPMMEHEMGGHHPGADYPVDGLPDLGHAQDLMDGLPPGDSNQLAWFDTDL

[5] = biological target: T1, β-catenin in cells (LEF/TCF-bla HCT-116 …); assay: cell-based or functional assay; remark: listed apart in the source

“full-length HD2 domain of human BCL9 protein (peptide)” gave a Kd [1] of 20 nM and a signal versus background ratio [1] of 180 fold.

B1: WX-020 (peptide)
peptide: Ac-LR[S5]IQR[S5]L-NH2
modifications: staple 3-7
SMILES: CC[C@H](C)[C@@H]1NC(=O)[C@@](C)(NC(=O)[C@H](CCCNC(=N)N)NC(=O)[C@H](CC(C)C)NC(C)=O)CCCC=CCCC[C@@](C)(C(=O)N[C@@H](CC(C)C)C(N)=O)NC(=O)[C@H](CCCNC(=N)N)NC(=O)[C@H](CCC(N)=O)NC1=O
B1 was tested, and the “IC50, CellTiterGlo cell viability assay, Colo320DM cells” value [2] was 12400 nM and the “IC50, Wnt transcription assay (GeneBLAzer reporter, procedures of Example 4.1)” value [2] was 1580 nM.

B2: WX-024 (conjugated with biotin) (peptide)
peptide: Ac-LQTLR[S5]IQR[S5]L[2Nal]-NH2
modifications: staple 6-10; also: coupled to biotin (site not given here)
notes: also called biotinylated WX-024; BCL9 peptide labeled with biotin
Work on B2 yielded a Kd [3] of 4.21 nM.

B3: WX-020, biotinylated (ALPHA screen) (peptide)
peptide: Ac-LR[S5]IQR[S5]L-NH2
modifications: staple 3-7; also: biotinylated with a PEG linker, site not given here
notes: The general description of the ALPHA assay says that a biotinylated polypeptide is used
B3 showed a Kd [4] of 80 nM.

B4: WX-024 (peptide)
peptide: Ac-LQTLR[S5]IQR[S5]L[2Nal]-NH2
modifications: staple 6-10; also: tested as trifluoroacetic, acetate and hydrochloric salts
With B4 the “IC50, GeneBLAzer beta-lactamase reporter assay, LEF-TCF-bla HCT116 cells” value [5] was 191 nM, the “IC50, cell-based Wnt transcription inhibition assay, acetate salt form of WX-024” value [2] was 292 nM and the “IC50, cell-based Wnt transcription inhibition assay, hydrochloric salt of WX-024” value [2] was 313 nM.

B5: WX-021 (peptide)
peptide: Ac-LR[S5]IQR[S5]L[2Nal][βAla][βAla]-NH2
modifications: staple 3-7
SMILES: CC[C@H](C)[C@@H]1NC(=O)[C@@](C)(NC(=O)[C@H](CCCNC(=N)N)NC(=O)[C@H](CC(C)C)NC(C)=O)CCCC=CCCC[C@@](C)(C(=O)N[C@@H](CC(C)C)C(=O)N[C@@H](Cc2ccc3ccccc3c2)C(=O)NCCC(=O)NCCC(N)=O)NC(=O)[C@H](CCCNC(=N)N)NC(=O)[C@H](CCC(N)=O)NC1=O
For B5, the “IC50, GeneBLAzer beta-lactamase reporter assay, LEF/TCF-bla HCT-116 cells” value [2] was 764 nM.
